Laboratory results as given in the supplement of paper PMC12764529.
± gives the half width of the 95% confidence interval.

Assays:
[1] = folding stability dG unfold from trypsin proteolysis; higher = more stable
In short: (§1)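 Unfolding free energy was derived, per protease or combined, by relating Bayesian-fitted K50 values from sequencing counts to a sequence-predicted unfolded-state K50 and a shared folded-state K50. The underlying digests exposed cysteine-free mini-proteins under 80 residues, in a PA-tagged cDNA display construct, to trypsin and chymotrypsin at 11 threefold-diluted concentrations and to a no-protease condition. A filter kept only designs with AlphaFold2 dimer inter-PAE above 15.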

[2] = folding stability dG unfold (combined trypsin and chymotrypsin); higher = more stable
In short: as §1

[3] = folding stability dG unfold from chymotrypsin proteolysis; higher = more stable
In short: as §1

Sequence | folding stability dG unfold [1] [kcal/mol] | folding stability dG unfold [2] [kcal/mol] | folding stability dG unfold [3] [kcal/mol]
SAGGSAGGSAPPWTRVLGLGTFPPGVPDLPVEVPGGNVYALFTPTEDGSVQVLIVDLIPPLSAGGSAGGSAG [r3_464_TrMRF] | 0.472 ± 0.1 | 0.773 ± 0.17 | 0.965 ± 0.21
SAGGSAGGSAPVLVLETESGVKFETLSLGPGPGALALIVTPDKPALALINLDDPNNIKILASAGGSAGGSAG [r3_450_TrMRF] | 1.55 ± 0.045 | 1.18 ± 0.1 | 0.799 ± 0.11
SAGGSAGGSAQPIPIKIRIRMRDDGKPQTFTFEVPVKPGATESTILDKIMKKFPGFRHIEIESAGGSAGGSA [r18_195_TrROS] | 1.06 ± 0.035 | 1.06 ± 0.085 | 0.961 ± 0.066
SAGGSAGGSARTLTLTFLTDSPEVAERFVRELREQKPLRVEASYRRLPDGRYLVTVTIHLDSAGGSAGGSAG [r3_273_TrMRF] | 3.21 ± 0.084 | 4.64 ± 0.074 | 5.14 ± 0.14
SAGGSAGGSASIEVAAPPDATVTITTEITRKLPAGAKLPNGVVASADETLKETVTTTITVLGSAGGSAGGSA [r18_450_JUSTAS] | -0.27 ± 0.29 | 0.364 ± 0.34 | 0.817 ± 0.047
SAGGSAGGSASITYENGYATITLKVPEGTVRIVDLATNEVIEIKPGDTVTIRVKIPPPPPESAGGSAGGSAG [r3_185_TrROS_Hall] | 2.31 ± 0.095 | 1.73 ± 0.18 | 1.55 ± 0.059
SAGGSAGGSASKDDKIVKVKVFTIKLKPNLEGLPKKVRELLEKLGIKEIKITFVSVFNPEDFSAGGSAGGSA [r18_127_TrMRF] | 3.23 ± 0.2 | 3.93 ± 0.17 | 4.34 ± 0.14
SAGGSAGGSASKTIFIPAAVVAANPEKAVEFAEKVREEFEKKGLSVKTEVLPDGGIGIHVGSAGGSAGGSAG [r3_75_TrMRF] | 2.07 ± 0.071 | 1.88 ± 0.087 | 1.61 ± 0.054
SAGGSAGGSASLDLSNATVLEEKTDPAKGLKTLTIKTPTSTLTITVEFDENGNPVKMTVFESAGGSAGGSAG [r3_5_JUSTAS] | 1.71 ± 0.037 | 2.03 ± 0.048 | 2.2 ± 0.057
SAGGSAGGSASMAPPEVLSLPVEILEKSPDGSVTVLVPETGEVLTFPSPKVNVTPDGTLNLSSAGGSAGGSA [r18_89_JUSTAS] | 0.416 ± 0.042 | 0.0808 ± 0.1 | -0.611 ± 0.16
SAGGSAGGSASMKKKKFVVKTEEEAEKVIAELKAKVPKGTEVEIYIKNEDGTLEKYAIIKISAGGSAGGSAG [r3_92_JUSTAS] | 2.91 ± 0.11 | 3.13 ± 0.15 | 3.15 ± 0.047
SAGGSAGGSASSLEESLRAELPEGKPARIEVKVELEKTPNGKLKVKEVKVTVTLPNGPVVGSAGGSAGGSAG [r3_247_JUSTAS] | 0.572 ± 0.077 | 1.24 ± 0.11 | 1.52 ± 0.072
SAGGSAGGSASSSPVTVETKTLEVEFKDDEIIVKEKVTTKYPNGKTTVTVTTTTIKVDPNLDSAGGSAGGSA [r18_291_JUSTAS] | 1.21 ± 0.1 | 1.34 ± 0.12 | 1.55 ± 0.1
SAGGSAGGSASSSSSIKFLSEEEIKLPDGTPVKVKIYKDPSNNKEYLYLPESKVWLPISKISAGGSAGGSAG [r3_181_JUSTAS] | 1.41 ± 0.033 | 1.67 ± 0.1 | 1.74 ± 0.037
SAGGSAGGSASTSEKIDYPNPPITVTRLPNGVVLVTYSDSNTTTVIPESVLATLPPTVPLFSAGGSAGGSAG [r3_256_JUSTAS] | 1.58 ± 0.048 | 1.33 ± 0.043 | 1.12 ± 0.013
SAGGSAGGSASVEEIADKIQQLHGVDVEVTEPQPNSNGYPRWRIKVDLKGLPEKWMQELLNSAGGSAGGSAG [r3_40_TrROS] | 0.681 ± 0.17 | 0.372 ± 0.11 | 0.217 ± 0.19
SAGGSAGGSASVKVEEKPTEIVITTKSPSPVITVETIPLSPDGVPVGKKTTTISLPPKDIILSAGGSAGGSA [r18_300_JUSTAS] | -0.3 ± 0.11 | -0.719 ± 0.47 | -0.778 ± 0.15
SAGGSAGGSASVTTTTTPLPGDRTLTTTTYPDGTVKVTTYTVDTATGTVTSTSTTLSPATLTSAGGSAGGSA [r18_325_JUSTAS] | 1.15 ± 0.042 | 0.856 ± 0.082 | 0.254 ± 0.12
SAGGSAGGSATIRIPWDKIKDALEEHDMTVTNIEPNPGGNPWVEIEVNGTPEQREKIQEALKSAGGSAGGSA [r18_175_TrROS] | 0.369 ± 0.045 | 0.313 ± 0.12 | 0.255 ± 0.15
SAGGSAGGSATKTIKVKNADGETVELTVEKREDGSYKITLTFPDGTKKTFTIKPGEKIVIKPSAGGSAGGSA [r18_115_TrROS_Hall] | 2.42 ± 0.11 | 3.9 ± 0.12 | 4.24 ± 0.098
SAGGSAGGSAVLDPSSPRPFEIVEVRRVRFEATVSFAGRPRKLEIEVDLLLVRDPSNGRIGSAGGSAGGSAG [r3_391_TrMRF] | 2.19 ± 0.04 | 3.14 ± 0.15 | 3.54 ± 0.049
